Data on 1 protein can be found in publication PMC2739136.

What all share (test): pull-down
One series concerns the target T1, MBP-TraR Q154A, P33905.
T1 chain: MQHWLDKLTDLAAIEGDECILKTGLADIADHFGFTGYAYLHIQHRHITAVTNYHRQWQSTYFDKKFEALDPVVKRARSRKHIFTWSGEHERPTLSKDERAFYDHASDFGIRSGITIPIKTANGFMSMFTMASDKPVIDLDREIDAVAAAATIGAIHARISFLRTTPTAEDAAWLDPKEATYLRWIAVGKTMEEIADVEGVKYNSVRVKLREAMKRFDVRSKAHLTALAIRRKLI

The target in a further series is T2, MBP-TraR G153E, P33905.
T2 chain: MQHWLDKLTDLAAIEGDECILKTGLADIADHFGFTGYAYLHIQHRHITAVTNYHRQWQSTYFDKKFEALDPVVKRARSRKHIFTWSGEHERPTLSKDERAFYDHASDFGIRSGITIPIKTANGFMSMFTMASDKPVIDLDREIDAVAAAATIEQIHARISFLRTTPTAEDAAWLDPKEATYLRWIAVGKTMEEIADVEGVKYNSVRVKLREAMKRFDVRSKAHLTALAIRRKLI

Another series has as its target T3, MBP-TraR A149V, P33905.
T3 chain: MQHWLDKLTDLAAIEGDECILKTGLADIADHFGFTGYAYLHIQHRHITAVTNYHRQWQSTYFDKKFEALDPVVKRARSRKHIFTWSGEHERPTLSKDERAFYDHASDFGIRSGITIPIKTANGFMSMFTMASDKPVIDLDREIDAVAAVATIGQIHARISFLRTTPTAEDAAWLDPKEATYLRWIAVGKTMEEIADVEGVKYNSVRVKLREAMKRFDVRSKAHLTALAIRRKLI

A further series concerns the target T4, MBP-TraR A149E, P33905.
T4 chain: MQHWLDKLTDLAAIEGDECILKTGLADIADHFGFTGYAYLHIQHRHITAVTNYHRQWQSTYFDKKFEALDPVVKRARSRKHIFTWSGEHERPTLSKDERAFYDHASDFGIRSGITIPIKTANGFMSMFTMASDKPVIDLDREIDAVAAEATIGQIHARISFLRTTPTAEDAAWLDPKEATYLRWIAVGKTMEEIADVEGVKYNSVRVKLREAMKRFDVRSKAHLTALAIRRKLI

For the next series, the target named is MBP-TraR N122A, P33905.
In a further series the target is T5, MBP-TraR F161A, P33905.
T5 chain: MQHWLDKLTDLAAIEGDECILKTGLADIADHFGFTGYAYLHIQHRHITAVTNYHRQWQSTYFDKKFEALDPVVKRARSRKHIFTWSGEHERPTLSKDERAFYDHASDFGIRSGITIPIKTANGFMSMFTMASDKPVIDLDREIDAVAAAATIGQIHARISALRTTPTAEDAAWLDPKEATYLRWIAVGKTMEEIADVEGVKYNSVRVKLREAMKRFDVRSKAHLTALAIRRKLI

The target of the next series is T6, MBP-TraR S160A, P33905.
T6 chain: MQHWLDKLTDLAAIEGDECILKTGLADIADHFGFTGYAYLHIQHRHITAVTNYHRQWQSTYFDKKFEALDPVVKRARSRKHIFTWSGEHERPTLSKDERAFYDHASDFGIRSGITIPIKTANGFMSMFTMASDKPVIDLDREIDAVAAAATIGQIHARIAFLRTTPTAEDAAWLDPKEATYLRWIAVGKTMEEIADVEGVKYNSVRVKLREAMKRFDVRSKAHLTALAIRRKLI

The next series addresses T7, MBP-TraR Q154E, P33905.
T7 chain: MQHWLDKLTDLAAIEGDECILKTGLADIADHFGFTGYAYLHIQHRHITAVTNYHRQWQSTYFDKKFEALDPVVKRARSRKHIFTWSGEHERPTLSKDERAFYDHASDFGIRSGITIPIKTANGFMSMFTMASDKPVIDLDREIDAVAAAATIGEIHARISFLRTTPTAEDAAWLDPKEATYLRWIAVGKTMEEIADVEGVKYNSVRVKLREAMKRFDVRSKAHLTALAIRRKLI

B1: native TraR (wild type) (protein)
chain: MQHWLDKLTDLAAIEGDECILKTGLADIADHFGFTGYAYLHIQHRHITAVTNYHRQWQSTYFDKKFEALDPVVKRARSRKHIFTWSGEHERPTLSKDERAFYDHASDFGIRSGITIPIKTANGFMSMFTMASDKPVIDLDREIDAVAAAATIGQIHARISFLRTTPTAEDAAWLDPKEATYLRWIAVGKTMEEIADVEGVKYNSVRVKLREAMKRFDVRSKAHLTALAIRRKLI
Turning to B1, the heterodimer formation (% of wild type) (% of wild type) with MBP-TraR Q154A, P33905 is 27; with MBP-TraR G153E, P33905, 19; in the series with MBP-TraR A149V, P33905, 19; in the series with MBP-TraR A149E, P33905, 12; with MBP-TraR N122A, P33905 it was 28; with MBP-TraR F161A, P33905 it was 49. Further, the heterodimer formation (% of wild type) (% of wild type) with MBP-TraR S160A, P33905 was found to be 100; with MBP-TraR Q154E, P33905, 25.
